Read-outs that look alike come from different tables or passages of the source.
Experiments:
Experiment in all cases: cell-based or functional assay
[1] = molecular target: TSHR with Asp203 mutated to Ala expressed in CHO cells (human) (UniProt P16473)
[2] = molecular target: TSHR with Arg109 mutated to Ala, expressed in CHO cells (human) (UniProt P16473)
[3] = molecular target: TSHR with Tyr185 mutated to Ala (human) (UniProt P16473)
[4] = molecular target: TSHR with Lys58 mutated to Ala expressed in CHO cells (human) (UniProt P16473)
[5] = molecular target: TSHR with Asp276 mutated to Ala, expressed in CHO cells (human) (UniProt P16473)
[6] = molecular target: wild type TSHR expressed in CHO cells (human) (UniProt P16473)
wild type TSHR (human) = wild type TSHR (human) (UniProt P16473)
[7] = molecular target: TSHR with Arg80 mutated to Ala expressed in CHO cells (human) (UniProt P16473)
[8] = molecular target: TSHR with Lys183 mutated to Ala expressed in CHO cells (human) (UniProt P16473)

5B3 IgG (antibody)
% inhibition of TSH stimulation: 5B3 10 µg/mL [1]: 0%
% inhibition of TSH stimulation: 5B3 100 µg/mL [1]: 0%
Cyclic AMP, Mutated/wild type (%): 5B3 10 µg/mL + TSH 3 ng/mL [1]: 89%
Cyclic AMP, Mutated/wild type (%): 5B3 100 µg/mL + TSH 3 ng/mL [1]: 84%
% inhibition of TSH stimulation; 5B3 10 µg/mL; Experiment 1 [2]: 0%
% inhibition of TSH stimulation; 5B3 10 µg/mL; Experiment 2 [2]: 0%
% inhibition of TSH stimulation; 5B3 100 µg/mL; Experiment 1 [2]: 0%
% inhibition of TSH stimulation; 5B3 100 µg/mL; Experiment 2 [2]: 0%
Cyclic AMP produced; 5B3 10 µg/mL + TSH 3 ng/mL; Experiment 1 [2]: 34.4 pmol/mL
Cyclic AMP produced; 5B3 10 µg/mL + TSH 3 ng/mL; Experiment 2 [2]: 60.6 pmol/mL
Cyclic AMP produced; 5B3 100 µg/mL + TSH 3 ng/mL; Experiment 1 [2]: 34.5 pmol/mL
Cyclic AMP produced; 5B3 100 µg/mL + TSH 3 ng/mL; Experiment 2 [2]: 56.6 pmol/mL
Mutated/wild type (%) of cyclic AMP produced; 5B3 10 µg/mL + TSH 3 ng/mL; Experiment 1 [2]: 52%
Mutated/wild type (%) of cyclic AMP produced; 5B3 10 µg/mL + TSH 3 ng/mL; Experiment 2 [2]: 88%
Mutated/wild type (%) of cyclic AMP produced; 5B3 100 µg/mL + TSH 3 ng/mL; Experiment 1 [2]: 50%
Mutated/wild type (%) of cyclic AMP produced; 5B3 100 µg/mL + TSH 3 ng/mL; Experiment 2 [2]: 85%
% inhibition of TSH stimulation, 5B3 10 µg/mL, mutated TSHR [3]: 10%
% inhibition of TSH stimulation, 5B3 100 µg/mL, mutated TSHR [3]: 0%
Cyclic AMP produced (pmol/mL), 5B3 10 µg/mL + TSH 3 ng/mL, mutated TSHR [3]: 47 pmol/mL
Cyclic AMP produced (pmol/mL), 5B3 100 µg/mL + TSH 3 ng/mL, mutated TSHR [3]: 56.1 pmol/mL
Mutated/wild type (%) of cyclic AMP produced; 5B3 10 µg/mL + TSH 3 ng/mL [3]: 37%
Mutated/wild type (%) of cyclic AMP produced; 5B3 100 µg/mL + TSH 3 ng/mL [3]: 58%
% inhibition of TSH stimulation; 5B3 10 µg/mL; Experiment 1 [4]: 0%
% inhibition of TSH stimulation; 5B3 10 µg/mL; Experiment 2 [4]: 4%
% inhibition of TSH stimulation; 5B3 100 µg/mL; Experiment 1 [4]: 0%
% inhibition of TSH stimulation; 5B3 100 µg/mL; Experiment 2 [4]: 1%
Cyclic AMP produced; 5B3 10 µg/mL + TSH 3 ng/mL; Experiment 1 [4]: 81.6 pmol/mL
Cyclic AMP produced; 5B3 10 µg/mL + TSH 3 ng/mL; Experiment 2 [4]: 92.9 pmol/mL
Cyclic AMP produced; 5B3 100 µg/mL + TSH 3 ng/mL; Experiment 1 [4]: 81.6 pmol/mL
Cyclic AMP produced; 5B3 100 µg/mL + TSH 3 ng/mL; Experiment 2 [4]: 95.8 pmol/mL
Mutated/wild type (%) of cyclic AMP produced; 5B3 10 µg/mL + TSH 3 ng/mL; Experiment 1 [4]: 99%
Mutated/wild type (%) of cyclic AMP produced; 5B3 10 µg/mL + TSH 3 ng/mL; Experiment 2 [4]: 88%
Mutated/wild type (%) of cyclic AMP produced; 5B3 100 µg/mL + TSH 3 ng/mL; Experiment 1 [4]: 101%
Mutated/wild type (%) of cyclic AMP produced; 5B3 100 µg/mL + TSH 3 ng/mL; Experiment 2 [4]: 106%
Experiment 1; % inhibition of TSH stimulation; 5B3 10 µg/mL [5]: 6%
Experiment 1; % inhibition of TSH stimulation; 5B3 100 µg/mL [5]: 4%
Experiment 1; Mutated/wild type (%) of cyclic AMP produced; 5B3 10 µg/mL + TSH 3 ng/mL [5]: 84%
Experiment 1; Mutated/wild type (%) of cyclic AMP produced; 5B3 100 µg/mL + TSH 3 ng/mL [5]: 94%
Experiment 1; cyclic AMP produced; 5B3 10 µg/mL + TSH 3 ng/mL [5]: 66.8 pmol/mL
Experiment 1; cyclic AMP produced; 5B3 100 µg/mL + TSH 3 ng/mL [5]: 68.5 pmol/mL
Experiment 2; % inhibition of TSH stimulation; 5B3 10 µg/mL [5]: 4%
Experiment 2; % inhibition of TSH stimulation; 5B3 100 µg/mL [5]: 0%
Experiment 2; Mutated/wild type (%) of cyclic AMP produced; 5B3 10 µg/mL + TSH 3 ng/mL [5]: 67%
Experiment 2; Mutated/wild type (%) of cyclic AMP produced; 5B3 100 µg/mL + TSH 3 ng/mL [5]: 75%
Experiment 2; cyclic AMP produced; 5B3 10 µg/mL + TSH 3 ng/mL [5]: 71.6 pmol/mL
Experiment 2; cyclic AMP produced; 5B3 100 µg/mL + TSH 3 ng/mL [5]: 75.9 pmol/mL
% inhibition of TSH stimulation (stimulator given as M22), wild type TSHR; 5B3 10 µg/mL [6]: 0%
% inhibition of TSH stimulation (stimulator given as M22), wild type TSHR; 5B3 100 µg/mL [6]: 0%
% inhibition of TSH stimulation, wild type TSHR; 5B3 10 µg/mL [6]: 0%
% inhibition of TSH stimulation, wild type TSHR; 5B3 100 µg/mL [6]: 0%
% inhibition of TSH stimulation; 5B3 10 µg/mL [6]: 0%
% inhibition of TSH stimulation; 5B3 10 µg/mL; Experiment 1 [6]: 0%
% inhibition of TSH stimulation; 5B3 10 µg/mL; Experiment 2 [6]: 0%
% inhibition of TSH stimulation; 5B3 100 µg/mL [6]: 0%
% inhibition of TSH stimulation; 5B3 100 µg/mL; Experiment 1 [6]: 0%
% inhibition of TSH stimulation; 5B3 100 µg/mL; Experiment 2 [6]: 8%
Cyclic AMP produced; 5B3 10 µg/mL + TSH 3 ng/mL [6]: 103 pmol/mL
Cyclic AMP produced; 5B3 10 µg/mL + TSH 3 ng/mL; Experiment 1 [6]: 82.8 pmol/mL
Cyclic AMP produced; 5B3 10 µg/mL + TSH 3 ng/mL; Experiment 2 [6]: 106 pmol/mL
Cyclic AMP produced; 5B3 100 µg/mL + TSH 3 ng/mL [6]: 94.8 pmol/mL
Cyclic AMP produced; 5B3 100 µg/mL + TSH 3 ng/mL; Experiment 1 [6]: 80.7 pmol/mL
Cyclic AMP produced; 5B3 100 µg/mL + TSH 3 ng/mL; Experiment 2 [6]: 90.4 pmol/mL
Experiment 1: % inhibition of TSH stimulation; 5B3 10 µg/mL [6]: 0%
Experiment 1: % inhibition of TSH stimulation; 5B3 100 µg/mL [6]: 0%
Experiment 1; % inhibition of TSH stimulation; 5B3 10 µg/mL [6]: 0%
Experiment 1; % inhibition of TSH stimulation; 5B3 100 µg/mL [6]: 7%
Experiment 1; cyclic AMP produced; 5B3 10 µg/mL + TSH 3 ng/mL [6]: 79.6 pmol/mL
Experiment 1; cyclic AMP produced; 5B3 100 µg/mL + TSH 3 ng/mL [6]: 72.7 pmol/mL
Experiment 2: % inhibition of TSH stimulation; 5B3 10 µg/mL [6]: 0%
Experiment 2: % inhibition of TSH stimulation; 5B3 100 µg/mL [6]: 0%
Experiment 2; % inhibition of TSH stimulation; 5B3 10 µg/mL [6]: 0%
Experiment 2; % inhibition of TSH stimulation; 5B3 100 µg/mL [6]: 0%
Experiment 2; cyclic AMP produced; 5B3 10 µg/mL + TSH 3 ng/mL [6]: 107 pmol/mL
Experiment 2; cyclic AMP produced; 5B3 100 µg/mL + TSH 3 ng/mL [6]: 101 pmol/mL
% inhibition of TSH stimulation; 5B3 10 µg/mL ([6]; record 2): 0%
% inhibition of TSH stimulation; 5B3 100 µg/mL ([6]; record 2): 0%
Cyclic AMP produced; 5B3 10 µg/mL + TSH 3 ng/mL ([6]; record 2): 83.6 pmol/mL
Cyclic AMP produced; 5B3 100 µg/mL + TSH 3 ng/mL ([6]; record 2): 88 pmol/mL
% inhibition of TSH stimulation, 5B3 10 µg/mL, wild type TSHR (wild type TSHR (human)): 0%
% inhibition of TSH stimulation, 5B3 100 µg/mL, wild type TSHR (wild type TSHR (human)): 3%
Cyclic AMP produced (pmol/mL), 5B3 10 µg/mL + TSH 3 ng/mL, wild type TSHR (wild type TSHR (human)): 126 pmol/mL
Cyclic AMP produced (pmol/mL), 5B3 100 µg/mL + TSH 3 ng/mL, wild type TSHR (wild type TSHR (human)): 97.3 pmol/mL
% inhibition of TSH stimulation; 5B3 10 µg/mL [7]: 0.3%
% inhibition of TSH stimulation; 5B3 100 µg/mL [7]: 4%
Cyclic AMP produced; 5B3 10 µg/mL + TSH 3 ng/mL [7]: 105 pmol/mL
Cyclic AMP produced; 5B3 100 µg/mL + TSH 3 ng/mL [7]: 101 pmol/mL
Mutated/wild type (%) of cyclic AMP produced; 5B3 10 µg/mL + TSH 3 ng/mL [7]: 102%
Mutated/wild type (%) of cyclic AMP produced; 5B3 100 µg/mL + TSH 3 ng/mL [7]: 107%
% inhibition of TSH stimulation, Exp 1: 5B3 10 µg/mL [8]: 24%
% inhibition of TSH stimulation, Exp 1: 5B3 100 µg/mL [8]: 17%
% inhibition of TSH stimulation, Exp 2: 5B3 10 µg/mL [8]: 9%
% inhibition of TSH stimulation, Exp 2: 5B3 100 µg/mL [8]: 9%
Cyclic AMP, Mutated/wild type (%), Exp 1: 5B3 10 µg/mL + TSH 3 ng/mL [8]: 93%
Cyclic AMP, Mutated/wild type (%), Exp 1: 5B3 100 µg/mL + TSH 3 ng/mL [8]: 91%
Cyclic AMP, Mutated/wild type (%), Exp 2: 5B3 10 µg/mL + TSH 3 ng/mL [8]: 104%
Cyclic AMP, Mutated/wild type (%), Exp 2: 5B3 100 µg/mL + TSH 3 ng/mL [8]: 111%
